Test results published in US8642284.

Key:
[1] = test system: unacetylated histone H3 N-terminal tail peptide (residues 1-20)
histone H4 (calf thymus) = histone H4 (calf thymus) (UniProt P62803)
[2] = molecular target: histone H2A (calf thymus) (UniProt P0C0S9)
[3] = test system: histone H3 N-terminal tail peptide (residues 1-20) di-acetylated at lysines 9 and 14
[4] = molecular target: histone H3 (calf thymus), intact protein (UniProt P68432)
[5] = molecular target: histone H2B (calf thymus) (UniProt P62808)

“recombinant 6xHis-tagged full-length yeast Sir2p” was tested, and the “ADP-ribosylation of peptide (32P-NAD, thin layer chromatography)” value [1] was “modified only the diacetylated H3 tail peptide (unacetylated peptide not modified)”, the “ADP-ribosylation (transfer of 32P from NAD, SDS-PAGE)” value (histone H4 (calf thymus)) was “but not to H1, H2A and H4” and the “ADP-ribosylation (transfer of 32P from NAD, SDS-PAGE)” value [2] was “but not to H1, H2A and H4”. The “ADP-ribosylation (transfer of 32P from NAD, SDS-PAGE)” value (histone H1 (calf thymus)) was “but not to H1, H2A and H4”, the “ADP-ribosylation of peptide (32P-NAD, thin layer chromatography)” value [3] was “Both the yeast and mouse Sir2 modified only the diacetylated H3 tail peptide” and the “NAD-dependent deacetylation (HPLC, areas under peaks 1, 2 and 4)” value [3] was “at least 27% of the input peptide was deacetylated by Sir2p”. The “deacetylation of Lys9 in peak 4 (Edman sequencing)” value [3] was “about 23% of Lys9”, the “deacetylation of Lys14 in peak 4 (Edman sequencing)” value [3] was 27% of Lys 14 and the “ADP-ribosylation (transfer of 32P from NAD, SDS-PAGE)” value [4] was “transferred radioactive ADP-ribose to H2B and H3”. The “transfer of 32P from NAD (SDS-PAGE)” value [4] was 32P was transferred from NAD to intact histone H3 and the “ADP-ribosylation (transfer of 32P from NAD, SDS-PAGE)” value [5] was “transferred radioactive ADP-ribose to H2B and H3”.
